Assay results: the supplement of paper PMC6757056
± gives the standard deviation of the averaged measurements.

B1: library; a variant is named by its letters at N, in order (parent)
chain: GCUGUCACCGGUGCUUGGUACGUUAUAUUCAGCCGGUCUGAUGAGUCUNNNNNNAGACGAAACAGC

Key:
(6R,S)-folinic acid [1] = variants of: B1; experiment: normalized RNA/DNA level without ligand (relative to sTRSVctl = 100) (log10 (% of sTRSVctl)); HEK293T overexpressing SLC46A1; higher = less ribozyme self-cleavage, higher mRNA level; conditions: without (6R,S)-folinic acid; ligand present: no
Summary of the method: (§1)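 HEK293T cells received ligand, where used, 1 h before being transfected with 4 µg per 6-well well of library plasmids encoding reporter-linked ribozyme switches. After 72 h, RNA was extracted with EDTA and sequenced. RNA level was derived from RNA reads per DNA read, normalized to a spiked-in non-cleaving sequence or the top sequences, then scaled and log-transformed. Values were ×100 then log10, the top set was 25 sequences, and the minimum was 100 DNA reads.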

(6R,S)-folinic acid [2] = variants of: B1; experiment: normalized RNA/DNA level with ligand (relative to sTRSVctl = 100) (log10 (% of sTRSVctl)); HEK293T overexpressing SLC46A1; ligand concentration (+) RNA-Seq: 6 mM; higher = less ribozyme self-cleavage, higher mRNA level; conditions: with (6R,S)-folinic acid; ligand present: yes
Summary of the method: as §1

Variant | normalized RNA/DNA level without ligand (log10) ((6R,S)-folinic acid [1]) | normalized RNA/DNA level with ligand (log10) ((6R,S)-folinic acid [2])
CUCUAA | 1.997 ± 0.017 | 2.01 ± 0.044
CUCUAU | 2.012 ± 0.0028 | 2.03 ± 0.049
CUCUAG | 2.001 ± 0.019 | 2.02 ± 0.083
CUCUAC | 2.0423 ± 0.0006 | 2.04 ± 0.023
AUGGAU | 1.889 ± 0.0038 | 2.01 ± 0.033
CUGCCG | 2.038 ± 0.012 | 2.075 ± 0.0058
CUGCCA | 2.05 ± 0.027 | 2.04 ± 0.033
CUGCCU | 2.034 ± 0.011 | 2.003 ± 0.006
AUGAGG | 1.812 ± 0.017 | 2.009 ± 0.013
CUGCGU | 2.059 ± 0.011 | 2.06 ± 0.039
CUGCGG | 2.052 ± 0.0072 | 2.066 ± 0.0066
CUGCGC | 2.06 ± 0.0038 | 2.009 ± 0.019
CUGCGA | 2.053 ± 0.0059 | 2.06 ± 0.037
AUCGCG | 1.926 ± 0.013 | 2.02 ± 0.019
AUCGCC | 2.041 ± 0.014 | 2 ± 0.053
AUCGCA | 2.01 ± 0.024 | 2 ± 0.032
GUGCCU | 2.02 ± 0.024 | 1.98 ± 0.039
GUGCCA | 2.057 ± 0.015 | 2.006 ± 0.0095
GUGCCC | 2.032 ± 0.012 | 2.02 ± 0.074
GUCCUC | 2.024 ± 0.02 | 2.05 ± 0.048
GUCCUU | 2.005 ± 0.01 | 2.008 ± 0.019
GUCCUG | 2.02 ± 0.034 | 2.01 ± 0.021
GUCCUA | 1.994 ± 0.015 | 2.02 ± 0.043

Variant | normalized RNA/DNA level without ligand (log10) ((6R,S)-folinic acid [1]) | normalized RNA/DNA level with ligand (log10) ((6R,S)-folinic acid [2])
UUCCUU | 2.02 ± 0.017 | 2.034 ± 0.018
UUCCUC | 2.096 ± 0.011 | 2.062 ± 0.02
UUCCUA | 2.022 ± 0.0051 | 2.033 ± 0.011
AUGCCA | 2.011 ± 0.0049 | 2.011 ± 0.01
AUGCCU | 2.011 ± 0.0046 | 2.015 ± 0.0068
AUGCCG | 1.979 ± 0.0032 | 2 ± 0.023
AUGCCC | 2.037 ± 0.016 | 2.02 ± 0.041
AUGACC | 2.046 ± 0.0045 | 2.024 ± 0.014
CUCUUU | 2.013 ± 0.011 | 2.02 ± 0.041
CUCUUC | 2.063 ± 0.0046 | 2.01 ± 0.024
CUCUUG | 2.04 ± 0.021 | 2.03 ± 0.028
GUCGAA | 1.9847 ± 0.0012 | 2.02 ± 0.026
GUCGAG | 1.947 ± 0.0022 | 2 ± 0.036
CUGACC | 2.05 ± 0.017 | 2.01 ± 0.033
CUGACG | 2 ± 0.006 | 2.046 ± 0.02
CUGACA | 1.996 ± 0.01 | 2.03 ± 0.022
CUGACU | 2.028 ± 0.004 | 2 ± 0.023
UUGACC | 2.04 ± 0.0038 | 2.04 ± 0.032
UUGACG | 1.866 ± 0.0091 | 1.996 ± 0.019
UUGACA | 1.956 ± 0.018 | 1.98 ± 0.021
UUGACU | 2.0063 ± 0.0015 | 2.04 ± 0.053
GUGCAG | 1.931 ± 0.0076 | 2.01 ± 0.021
GUGCAU | 1.973 ± 0.0054 | 2.02 ± 0.051

Variant | normalized RNA/DNA level without ligand (log10) ((6R,S)-folinic acid [1]) | normalized RNA/DNA level with ligand (log10) ((6R,S)-folinic acid [2])
GUGCAC | 1.935 ± 0.0098 | 2 ± 0.0049
GUGCAA | 1.975 ± 0.0071 | 1.999 ± 0.01
CUGAGG | 1.948 ± 0.005 | 2.02 ± 0.029
CUGAGU | 2.052 ± 0.016 | 2.058 ± 0.015
CUGAGC | 2.0258 ± 0.00095 | 2.01 ± 0.019
CUGAUG | 2.014 ± 0.013 | 2.013 ± 0.014
CUGAUU | 2.015 ± 0.007 | 2.05 ± 0.052
CUGAUA | 1.9701 ± 0.00086 | 2.02 ± 0.048
CUGAUC | 2.0695 ± 0.0006 | 2.038 ± 0.013
CUCUCU | 2.025 ± 0.017 | 2.019 ± 0.0069
CUCUCC | 2.1 ± 0.025 | 2.07 ± 0.022
CUCUCG | 2.05 ± 0.014 | 2.014 ± 0.0035
CUCUCA | 2.05 ± 0.015 | 2.02 ± 0.057
GUCUUC | 2.073 ± 0.0035 | 2.027 ± 0.0036
GUCUUA | 2.03 ± 0.025 | 2.034 ± 0.013
GUCUUU | 2.047 ± 0.0022 | 2.04 ± 0.064
AUCCUU | 2.004 ± 0.01 | 2.02 ± 0.032
AUCCUC | 2.1 ± 0.022 | 2.02 ± 0.025
AUCCUG | 1.992 ± 0.0066 | 2.02 ± 0.042
AUCCUA | 1.987 ± 0.0057 | 2.01 ± 0.079
CUCGAC | 2.017 ± 0.0083 | 2.01 ± 0.02
CUCGAA | 1.994 ± 0.009 | 1.988 ± 0.018
CUCGAU | 1.99 ± 0.0044 | 1.991 ± 0.0061

Variant | normalized RNA/DNA level without ligand (log10) ((6R,S)-folinic acid [1]) | normalized RNA/DNA level with ligand (log10) ((6R,S)-folinic acid [2])
GUGAAC | 1.908 ± 0.0094 | 2.012 ± 0.0064
AUGGCC | 2.063 ± 0.0035 | 2.04 ± 0.05
AUGGCA | 1.9865 ± 2.8e-05 | 2 ± 0.046
AUGGCU | 1.989 ± 0.011 | 2.02 ± 0.031
AUCUGA | 2.021 ± 0.016 | 2.02 ± 0.058
AUCUGU | 2.004 ± 0.0032 | 2.06 ± 0.056
AUCUGC | 2.06 ± 0.028 | 2.05 ± 0.052
UUCGAA | 1.947 ± 0.018 | 2 ± 0.027
UUCGAU | 1.954 ± 0.0023 | 2.02 ± 0.033
UUCGAC | 1.994 ± 0.0022 | 2.02 ± 0.037
UUCGUC | 2.1 ± 0.024 | 2.06 ± 0.068
UUCGUA | 1.96 ± 0.025 | 1.97 ± 0.02
UUCGUG | 1.81 ± 0.027 | 1.99 ± 0.067
UUCGUU | 2.009 ± 0.013 | 1.98 ± 0.042
GUGCUU | 2.037 ± 0.0067 | 2.039 ± 0.015
GUGCUA | 1.994 ± 0.0059 | 1.98 ± 0.04
GUGCUC | 2.05 ± 0.032 | 2.01 ± 0.045
AUGCAG | 1.92 ± 0.022 | 2 ± 0.032
AUGCAU | 1.934 ± 0.011 | 2.006 ± 0.005
CUGGCC | 2.079 ± 0.011 | 2.03 ± 0.032
CUGGCG | 1.99 ± 0.026 | 2.03 ± 0.037
CUGGCA | 1.999 ± 0.0069 | 1.98 ± 0.042
UUCUAU | 1.994 ± 0.0097 | 2.05 ± 0.04

Variant | normalized RNA/DNA level without ligand (log10) ((6R,S)-folinic acid [1]) | normalized RNA/DNA level with ligand (log10) ((6R,S)-folinic acid [2])
UUCUAC | 2.03 ± 0.029 | 1.98 ± 0.061
GUCUGU | 2.016 ± 0.0056 | 2.06 ± 0.027
GUCUGA | 2.05 ± 0.021 | 2.05 ± 0.038
AUGAUA | 1.946 ± 0.017 | 2.002 ± 0.019
AUGAUC | 2.07 ± 0.028 | 2.06 ± 0.032
GUGGCG | 1.993 ± 0.0028 | 2.015 ± 0.0038
GUGGCU | 2.047 ± 0.0085 | 2.06 ± 0.028
GUCGCG | 1.96 ± 0.026 | 1.996 ± 0.0077
GUCGCU | 2.048 ± 0.0053 | 2.002 ± 0.02
UUCUGU | 2.03 ± 0.023 | 2.047 ± 0.0083
UUCUGA | 2.016 ± 0.012 | 2.032 ± 0.0073
UUCUCU | 2.06 ± 0.032 | 2.05 ± 0.054
UUCUCG | 1.944 ± 0.0051 | 2.02 ± 0.056
UUCUCC | 2.083 ± 0.014 | 2.02 ± 0.038
UUCUCA | 2.019 ± 0.003 | 2.04 ± 0.025
GUGGGG | 1.94 ± 0.026 | 2.03 ± 0.028
AUGAAC | 1.95 ± 0.004 | 1.97 ± 0.048
AUCUUC | 2.07 ± 0.022 | 2.05 ± 0.045
AUCUUU | 2.07 ± 0.025 | 2.087 ± 0.017
AUCGAU | 1.98 ± 0.025 | 2.02 ± 0.031
AUCGAA | 1.974 ± 0.0042 | 2 ± 0.02
AUGCGC | 2.017 ± 0.0084 | 2.009 ± 0.018
CUCUGA | 2.067 ± 0.012 | 2.046 ± 0.0084
